From patent US20070122429A1, “Designed antigens to elicit neutralizing antibodies against sterically restricted antigen and method of using same” (priority 2005, published 2007)

Tests used:
[1] = target: HIV-1 HXB2 Env (gp41 N-trimer region) (HIV-1 HXB2) (UniProt P04578); assay: cell-based or functional assay
[2] = target: HIV-1 JRFL Env (gp41 N-trimer region) (HIV-1 JRFL); assay: cell-based or functional assay

Substance BPTI-H6 (from UniProt P00974 36-93) has a no inhibition of cell-cell fusion or viral infectivity (HXB2 Env) up to the stated concentration [1] greater than 1 µM and a no inhibition of viral infectivity (JRFL Env) up to the stated concentration [2] greater than 1 µM.
GFP-H6 was tested, and the no inhibition of cell-cell fusion or viral infectivity (HXB2 Env) up to the stated concentration [1] was greater than 1 µM and the no inhibition of viral infectivity (JRFL Env) up to the stated concentration [2] was greater than 1 µM.
MBP-H6 (from UniProt P0AEX9 27-392) showed a no inhibition of cell-cell fusion or viral infectivity (HXB2 Env) up to the stated concentration [1] greater than 1 µM and a no inhibition of viral infectivity (JRFL Env) up to the stated concentration [2] greater than 10 µM.
“Ub-C37 (from UniProt P0CG48 1-76; P04578 625-661)” gave an IC50, viral infectivity HXB2 [1] of 6.8 nM and an IC50, viral infectivity JRFL [2] of 37.7 nM.
